We go through three molecules from publication PMC9985226, “A fully human connective tissue growth factor blocking monoclonal antibody ameliorates experimental rheumatoid arthritis through inhibiting angiogenesis” (BMC Biotechnology, 2023).

Where a chain is given by its changes, count along the chain named.

Assay [1] deals with T1, recombinant human connective tissue growth factor (CTGF) (Homo sapiens, UniProt P29279).
T1 construct: connective tissue growth factor (CTGF, CCN2), human, recombinant; The methods of the SPR say only that 'CTGF' was amine-coupled; also called hCTGF; CCN2
Description: SPR; Biacore T200; CTGF amine-coupled on a CM5 chip; scFvs or IgG in running buffer PBS pH 7.4 flowed for 3 min at 10 µl/min, 5 min dissociation, regeneration with 1 M NaCl. The note with it: both partners purified. (In general: In SPR one partner is held on a chip, and binding of the other changes the refractive index at the surface.)

Assay [2] concerns the target T1, recombinant human connective tissue …. Nature of the assay: cell-based or functional assay.

T1 sequence (P29279 27-349): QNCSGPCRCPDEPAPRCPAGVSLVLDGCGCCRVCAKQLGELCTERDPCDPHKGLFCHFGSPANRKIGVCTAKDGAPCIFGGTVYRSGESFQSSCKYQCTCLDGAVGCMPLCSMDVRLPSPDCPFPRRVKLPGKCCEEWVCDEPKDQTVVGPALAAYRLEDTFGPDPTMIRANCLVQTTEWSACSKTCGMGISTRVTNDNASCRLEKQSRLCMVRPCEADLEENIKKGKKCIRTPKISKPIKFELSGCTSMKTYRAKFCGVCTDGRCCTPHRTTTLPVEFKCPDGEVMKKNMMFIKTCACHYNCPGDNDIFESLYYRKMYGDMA

B1: anti-CTGF scFv B2 (scFv, V domains shown)
VH: QVQLVQSGAEVKKPGESLKISCKGSGYKFTSYWIAWVRQMPGKGLEWMGIIYPGGSDTRYSPSFQGQVTISDDRSSSTTYLQWSSLKASDTAIYYCARSGELMDVWGQGTTVTVSS
VL: SYVLTQPPSVSVSPGQTVSITCSGDKLGNKYASWYQQRPGQSPILVIYQDTKRPSGIPERFSGSNSGNTATLTISGTQAMDEADYYCQAWDSNTAFFGTGTKVTVL
notes: VH of scFv B2; the classical (Gly4Ser)3 linker between VH and VL; VL of scFv B2; Order VH-linker-VL as in the library construction; Selected from a fully human phage library made from PBMCs of RA patients; also called parental scFv B2; source: E. coli (pET28a, IPTG induced), purified (Ni Sepharose)
For orientation: Kd means the equilibrium constant for the complex coming apart. One may read the koff as a measure of how fast the partners let go of each other. In general, kon refers to the second-order rate constant of association. In the case of B1, in assay [1], the dissociation constant Kd amounted to 0.252 µM, the koff stood at 0.00574 s⁻¹ and the kon worked out at 22800 M⁻¹ s⁻¹. The “EC50 of inhibition of CTGF-induced HUVEC proliferation, CCK-8 assay, scFv 1-500 nM” value in assay [2] was found to be 0.0374 µM.

B2: mut-scFv B2 (scFv, V domains shown)
VH: B1 VH with S99L, E101G, L102A
VL: B1 VL
notes: VH of mut-scFv B2; as the VH of m2 with three changes in VH-CDR3; the classical (Gly4Ser)3 linker between VH and VL; VL as the VL of m2; source: E. coli (pET28a, IPTG induced), purified (Ni Sepharose)
Consider B2, for which, in assay [1], the Kd was 0.00196 µM, the off-rate constant (koff) stood at 0.00222 s⁻¹ and the on-rate constant (kon) was determined as 1.13e+06 M⁻¹ s⁻¹. Also, in assay [2], the “EC50 of inhibition of CTGF-induced HUVEC proliferation, CCK-8 assay, scFv 1-500 nM” value was determined as 0.0275 µM.

B3: anti-CTGF IgG mut-B2 (antibody, V domains shown)
VH: B1 VH with S99L, E101G, L102A
VL: B1 VL with V103L
notes: heavy chain: VH of m3 with human IgG1 constant region; light chain: VL of m3 with antibody constant region; Human IgG1 format; also called full-length antibody IgG mut-B2; source: ExpiCHO, transiently expressed, purified from supernatant (Protein G Sepharose); copies: 2 + 2
As to B3, in assay [1], the equilibrium dissociation constant (Kd) was found to be 0.000782 µM, the off-rate (koff) is 0.00365 s⁻¹ and the kon amounted to 4.67e+06 M⁻¹ s⁻¹.
